Laboratory results reported in patent US20150284428A1 (INTERK PEPTIDE THERAPEUTICS, published 2015).

Biological target: T1, cytoplasmic domain of β6 having the amino acid sequence HDRKEVAKFEAERSKAKWQTGTNPLYRGSTSTFKNVTYKHREKQKVDLSTDC
T1 construct: Integrin β6 subunit cytoplasmic domain; also called β6 domain; cytoplasmic domain fragment of β6
T1 chain: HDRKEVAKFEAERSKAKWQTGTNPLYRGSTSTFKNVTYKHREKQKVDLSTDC
Assay: binding assay of MAP kinase fragments with β6 cytoplasmic domain, FIG. 4

binding result: binds
B1: p38 MAP kinase fragment HRDLKPSNLAVNEDCELKILDFGLAR (peptide)
peptide: HRDLKPSNLAVNEDCELKILDFGLAR
notes: also called fragment of p38 MAP kinase
